# Data as given in patent US20250163127A1.
# Changes are numbered by the printed parent chain. Names and notes keep the numbering of the source.
# B1: ICOSL ECD-Fc N84Q/N119Q/N207Q (Fc fusion)
# chain: DTQEKEVRAMVGSDVELSCACPEGSRFDLNDVYVYWQTSESKTVVTYHIPQNSSLENVDSRYRNRALMSPAGMLRGDFSLRLFQVTPQDEQKFHCLVLSQSLGFQEVLSVEVTLHVAAQFSVPVVSAPHSPSQDELTFTCTSINGYPRPNVYWINKTDNSLLDQALQNDTVFLNMRGLYDVVSVLRIARTPSVNIGCCIENVLLQQQLTVGSQTGNDIGERDKITENPVSTGEKNAAT
# B2: ICOSL-Fc N52A/N57F/Q100S (Fc fusion)
# chain: B1 chain with N52A, N57F, Q84N, Q100S, Q119N, Q207N
# B3: ICOSL-Fc N52A/N57H/Q100S (Fc fusion)
# chain: B1 chain with N52A, N57H, Q84N, Q100S, Q119N, Q207N
# B4: ICOSL-Fc N52A/N57Y/Q100A (Fc fusion)
# chain: B1 chain with N52A, N57Y, Q84N, Q100A, Q119N, Q207N
# B5: ICOSL-Fc N52M/N57H/Q100S (Fc fusion)
# chain: B1 chain with N52M, N57H, Q84N, Q100S, Q119N, Q207N
# B6: variant PD-L2 IgV H15Q/S39I/I86T Fc fusion (Fc fusion)
# chain: LFTVTVPKELYIIEQGSNVTLECNFDTGSHVNLGAITAILQKVENDTSPHRERATLLEEQLPLGKASFHIPQVQVRDEGQYQCIITYGVAWDYKYLTLKVKA
# B7: variant PD-L2 IgV I13V/H15Q/T47A/Q72H/R76G Fc fusion (Fc fusion)
# chain: B6 chain with I13V, I39S, T47A, Q72H, R76G, T86I
# B8: variant PD-L2 IgV I13V/Q72H/R76G/I86T Fc fusion (Fc fusion)
# chain: B6 chain with I13V, Q15H, I39S, Q72H, R76G
# B9: variant PD-L2 IgV I13V/H15Q/Q72H/R76G/I86T Fc fusion (Fc fusion)
# chain: B6 chain with I13V, I39S, Q72H, R76G
# B10: variant PD-L2 IgV I13V/H15Q/T47A/E58G/S67L/Q82R/V89D Fc fusion (Fc fusion)
# chain: B6 chain with I13V, I39S, T47A, E58G, S67L, Q82R, T86I, V89D
# B11: variant PD-L2 IgV E44D/S67L/Q72H/Q82R/V89D Fc fusion (Fc fusion)
# chain: B6 chain with Q15H, I39S, E44D, S67L, Q72H, Q82R, T86I, V89D
# B12: variant PD-L2 IgV I13V/H15Q/Q82R Fc fusion (Fc fusion)
# chain: B6 chain with I13V, I39S, Q82R, T86I
# B13: variant PD-L2 IgV H15Q/S39I/S67L/V89D Fc fusion (Fc fusion)
# chain: B6 chain with S67L, T86I, V89D
# B14: variant PD-L2 IgV H15Q/S67L/I86T Fc fusion (Fc fusion)
# chain: B6 chain with I39S, S67L
# B15: variant PD-L2 IgV I12V/I13V/H15Q/T47A/Q82R/V89D Fc fusion (Fc fusion)
# chain: B6 chain with I12V, I13V, I39S, T47A, Q82R, T86I, V89D
# B16: variant PD-L2 IgV I13V/H15Q/V89D Fc fusion (Fc fusion)
# chain: B6 chain with I13V, I39S, T86I, V89D
# B17: variant PD-L2 IgV H15Q/V31M/S67L/Q82R/V89D Fc fusion (Fc fusion)
# chain: B6 chain with V31M, I39S, S67L, Q82R, T86I, V89D
# B18: variant PD-L2 IgV H15Q/S39I/E44D/Q72H/V75G/R76G/Q82R/V89D Fc fusion (Fc fusion)
# chain: B6 chain with E44D, Q72H, V75G, R76G, Q82R, T86I, V89D
# B19: variant PD-L2 IgV I13V/H15Q/T47A/Q72H/R76G/I86T Fc fusion (Fc fusion)
# chain: B6 chain with I13V, I39S, T47A, Q72H, R76G
# B20: variant PD-L2 IgV N32D/S67L/V89D Fc fusion (Fc fusion)
# chain: B6 chain with Q15H, N32D, I39S, S67L, T86I, V89D
# B21: variant PD-L2 IgV I13V/H15Q/R76G/D77N/Q82R/V89D Fc fusion (Fc fusion)
# chain: B6 chain with I13V, I39S, R76G, D77N, Q82R, T86I, V89D
# B22: variant PD-L2 IgV H15Q/T47A/S67L/R76G/Q82R/V89D Fc fusion (Fc fusion)
# chain: B6 chain with I39S, T47A, S67L, R76G, Q82R, T86I, V89D
# B23: variant PD-L2 IgV F2L/H15Q/D46E/T47A/Q72H/R76G/Q82R/V89D Fc fusion (Fc fusion)
# chain: B6 chain with F2L, I39S, D46E, T47A, Q72H, R76G, Q82R, T86I, V89D
# B24: variant PD-L2 IgV H15Q/N18D/T47A/Q72H/V73A/R76G/I86T/V89D Fc fusion (Fc fusion)
# chain: B6 chain with N18D, I39S, T47A, Q72H, V73A, R76G, V89D
# B25: variant PD-L2 IgV I13V/S67L/Q82R/V89D Fc fusion (Fc fusion)
# chain: B6 chain with I13V, Q15H, I39S, S67L, Q82R, T86I, V89D
# B26: variant PD-L2 IgV H15Q/E44D/R76G/I85F Fc fusion (Fc fusion)
# chain: B6 chain with I39S, E44D, R76G, I85F, T86I
# B27: variant PD-L2 IgV H15Q/L33H/S67L/R76G/Q82R/V89D Fc fusion (Fc fusion)
# chain: B6 chain with L33H, I39S, S67L, R76G, Q82R, T86I, V89D
# B28: variant PD-L2 IgV I13V/S67L/V89D Fc fusion (Fc fusion)
# chain: B6 chain with I13V, Q15H, I39S, S67L, T86I, V89D
# B29: variant PD-L2 IgV I13V/H15Q/T47A/Q82R Fc fusion (Fc fusion)
# chain: B6 chain with I13V, I39S, T47A, Q82R, T86I
# B30: variant PD-L2 IgV I13V/H15Q/T47A/H69L/R76G/V89D Fc fusion (Fc fusion)
# chain: B6 chain with I13V, I39S, T47A, H69L, R76G, T86I, V89D
# B31: variant PD-L2 IgV H15Q/L33P/T47A/S67L/P71S/V89D Fc fusion (Fc fusion)
# chain: B6 chain with L33P, I39S, T47A, S67L, P71S, T86I, V89D
# B32: variant PD-L2 IgV H15Q/Q72H/Q74R/R76G/I86T Fc fusion (Fc fusion)
# chain: B6 chain with I39S, Q72H, Q74R, R76G
# B33: variant PD-L2 IgV E44D/V89D/W91R Fc fusion (Fc fusion)
# chain: B6 chain with Q15H, I39S, E44D, T86I, V89D, W91R
# B34: variant PD-L2 IgV I13V/S39I/E44D/Q82R/V89D Fc fusion (Fc fusion)
# chain: B6 chain with I13V, Q15H, E44D, Q82R, T86I, V89D
# B35: variant PD-L2 IgV I13V/H15Q/Q82R/V89D Fc fusion (Fc fusion)
# chain: B6 chain with I13V, I39S, Q82R, T86I, V89D
# B36: variant PD-L2 IgV I13V/H15Q/T47A/S67L/Q72H/R76G/Q82R/V89D Fc fusion (Fc fusion)
# chain: B6 chain with I13V, I39S, T47A, S67L, Q72H, R76G, Q82R, T86I, V89D
# B37: variant PD-L2 IgV H15Q/T47A/Q72H/R76G Fc fusion (Fc fusion)
# chain: B6 chain with I39S, T47A, Q72H, R76G, T86I
# B38: variant PD-L2 IgV I13V/H15Q/S39I/E44D/S67L Fc fusion (Fc fusion)
# chain: B6 chain with I13V, E44D, S67L, T86I
# B39: variant PD-L2 IgV I13V/H15Q/L33F/T47A/Q82R/V89D Fc fusion (Fc fusion)
# chain: B6 chain with I13V, L33F, I39S, T47A, Q82R, T86I, V89D
# B40: variant PD-L2 IgV H15Q/N32D/S67L/V89D Fc fusion (Fc fusion)
# chain: B6 chain with N32D, I39S, S67L, T86I, V89D
# B41: variant PD-L2 IgV I13V/H15Q/E44V/T47A/Q82R/V89D Fc fusion (Fc fusion)
# chain: B6 chain with I13V, I39S, E44V, T47A, Q82R, T86I, V89D
# B42: variant PD-L2 IgV I13V/H15Q/V31A/N45S/Q82R/V89D Fc fusion (Fc fusion)
# chain: B6 chain with I13V, V31A, I39S, N45S, Q82R, T86I, V89D
# B43: variant PD-L2 IgV I13V/H15Q/E44D/V89D Fc fusion (Fc fusion)
# chain: B6 chain with I13V, I39S, E44D, T86I, V89D
# B44: variant PD-L2 IgV I13V/H15Q/I36V/T47A/S67L/V89D Fc fusion (Fc fusion)
# chain: B6 chain with I13V, I36V, I39S, T47A, S67L, T86I, V89D
# B45: variant PD-L2 IgV H15Q/T47A/S67L/Q82R/V89D Fc fusion (Fc fusion)
# chain: B6 chain with I39S, T47A, S67L, Q82R, T86I, V89D
# B46: variant PD-L2 IgV H15Q/S67L/Q72H/R76G/V89D Fc fusion (Fc fusion)
# chain: B6 chain with I39S, S67L, Q72H, R76G, T86I, V89D
# B47: ICOSL ECD-Fc N52Q/N84Q/N119Q/N168Q (Fc fusion)
# chain: B1 chain with N52Q, N168Q, Q207N
# Substrate: ICOS (Homo sapiens (Human)) (UniProt Q9Y6W8)
# Sequence (Q9Y6W8 21-199 limits assumed): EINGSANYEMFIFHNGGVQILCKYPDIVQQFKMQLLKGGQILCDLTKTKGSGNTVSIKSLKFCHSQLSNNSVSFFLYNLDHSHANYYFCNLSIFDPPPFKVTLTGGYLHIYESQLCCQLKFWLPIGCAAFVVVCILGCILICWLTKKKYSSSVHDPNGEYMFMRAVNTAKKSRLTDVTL
# Assay: flow cytometry, transfected cells
Binder,MFI [MFI],MFI parental ratio [fold],MFI ratio to WT (ΔWT) [fold]
B1,21400,0.58,
B2,242000,,1.14
B3,305000,,1.44
B4,261000,,1.23
B5,266000,,1.25

# Target: human PD-1 (human) (UniProt Q15116)
# Sequence (Q15116 25-288): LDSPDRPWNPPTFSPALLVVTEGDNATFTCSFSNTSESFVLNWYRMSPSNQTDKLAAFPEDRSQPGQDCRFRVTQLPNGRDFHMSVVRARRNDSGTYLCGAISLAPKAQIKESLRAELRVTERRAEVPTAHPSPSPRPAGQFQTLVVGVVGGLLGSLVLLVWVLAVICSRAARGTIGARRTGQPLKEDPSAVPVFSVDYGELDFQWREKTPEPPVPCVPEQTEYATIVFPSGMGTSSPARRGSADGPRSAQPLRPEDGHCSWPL
# Assay: not given
row,Binder,IFN gamma levels pg/mL (MLR) [pg/mL]
1,B6,1420
2,B7,1470
3,B8,1950
4,B9,1220
5,B10,836
6,B11,1280
7,B12,1430
8,B13,1230
9,B14,1030
10,B15,1530
11,B16,1120
12,B17,1210
13,B18,941
14,B19,1090
15,B20,1190
16,B21,1190
17,B22,1100
18,B23,1170
19,B24,1070
20,B25,1370
21,B26,1390

row,Binder,IFN gamma levels pg/mL (MLR) [pg/mL]
1,B27,1500
2,B28,868
3,B29,1700
4,B30,1080
5,B31,1290
6,B32,934
7,B33,1560
8,B34,936
9,B35,1600
10,B36,1560
11,B37,1460
12,B38,1260
13,B39,1470
14,B40,1290
15,B41,1270
16,B42,1720
17,B43,1380
18,B44,1360
19,B45,1200
20,B46,1060

# Target: CTLA-4 (Homo sapiens (Human)) (UniProt P16410)
# Sequence (P16410 36-223): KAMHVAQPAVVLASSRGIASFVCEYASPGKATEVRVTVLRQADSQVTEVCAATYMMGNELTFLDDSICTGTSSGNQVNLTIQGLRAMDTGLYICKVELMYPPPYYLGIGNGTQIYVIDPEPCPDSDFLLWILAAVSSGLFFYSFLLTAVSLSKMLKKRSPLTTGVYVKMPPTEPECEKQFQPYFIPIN
# Assay: flow cytometry, transfected cells
Binder,MFI [MFI],MFI parental ratio [fold],MFI ratio to WT (ΔWT) [fold]
B1,640,0.17,
B47,3300,,
B2,255000,,0.77
B3,321000,,0.97
B4,320000,,0.97
B5,463000,,1.4

# Target: CD28 (human) (UniProt P10747)
# Assay: flow cytometry, transfected cells
Binder,MFI [MFI],MFI parental ratio [fold],MFI ratio to WT (ΔWT) [fold]
B1,569,0.38,
B2,157000,,7
B3,159000,,7.1
B4,147000,,6.6
B5,115000,,5.1
